Experiment [1] concerns the target T1, hMSLN-His-Avi (human, UniProt Q13421 296-598, single biotin on the Avi tag in the biotinylated form).
T1 construct: Monomeric; also called human MSLN-His-Avi; hMSLN-Avi-His
In words: SPR, hMSLN-His-Avi in solution. In general terms: In SPR one partner is held on a chip, and binding of the other changes the refractive index at the surface.

For experiment [2], the target named is T1, hMSLN-His-Avi. The experiment is described as follows: SPR, mAb2 captured on Protein G, hMSLN-His-Avi in solution. As to the method:
(§1) The association time was 5 min and the dissociation time was 5 min. Running buffer was HBS-EP (GE Healthcare BR100188). Flow cells were regenerated by injecting Glycine-HCl pH2.1 at a flow rate of 30 μl/min for 15 seconds. The data was analysed as described in Example 7.1.

For experiment [3], the target named is T1, hMSLN-His-Avi. The experiment is described as follows: ratio of SPR KDs.
The target of experiment [4] is T2, human CD137 on primary human CD8+ T cells (human, UniProt Q07011 24-255). In words: cell-based or functional assay.
T2 sequence (Q07011 24-255): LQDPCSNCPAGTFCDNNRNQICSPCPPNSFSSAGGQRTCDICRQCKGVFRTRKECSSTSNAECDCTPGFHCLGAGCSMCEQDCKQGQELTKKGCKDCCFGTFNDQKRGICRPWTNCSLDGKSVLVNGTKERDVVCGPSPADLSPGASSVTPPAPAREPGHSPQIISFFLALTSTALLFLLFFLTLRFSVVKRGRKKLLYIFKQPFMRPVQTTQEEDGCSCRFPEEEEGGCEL
The target of experiment [5] is T1, hMSLN-His-Avi. The experiment is described as follows: SPR, hMSLN-His-Avi immobilised.
In experiment [6] the target is T2, human CD137 on primary human CD8+ T …. The experiment is described as follows: cell-based or functional assay. The source holds these as a separate data set.
The target of experiment [7] is T1, hMSLN-His-Avi. The experiment is described as follows: SPR, hMSLN-His-Avi immobilised ~100 RU, mAb2 injected. The protocol:
(§2) 7.1 Binding of CD137/MSLN mAb2 to Human MSLN Under Avid Conditions—Antigen Capture Method Binding of all mAb^2 to MSLN immobilised on a BIAcore chip was tested to determine the binding affinity to human MSLN under avid conditions, where a high concentration of immobilised antigen is available to allow the antibody to bind avidly. […] The association time was 5 min and the dissociation time was 10 min. Running buffer was HBS-EP (GE Healthcare BR100188). Flow cells were regenerated by injecting Glycine-HCl pH1.5 at a flow rate of 30 μl/min for 30 seconds. Data were analysed by double referencing against a flow cell which was intentionally left blank (no antigen coating). The binding kinetics were fitted with a 1:1 Langmuir model to generate binding association (k_a) and dissociation (k_d) rates. Equilibrium binding constants (K_D) were calculated by dividing the dissociation rate by the association rate for each sample. Data analysis was performed with BiaEvaluation software version 3.2.

For experiment [8], the target named is T1, hMSLN-His-Avi. In words: ratio of SPR KDs. The protocol:
as §2, §1
This is another data set of the same source.

Experiment [9] deals with T1, hMSLN-His-Avi. The experiment is described as follows: ELISA, hMSLN-His-Avi coated 1 µg/ml. For orientation: In an ELISA, binding on a coated surface is turned into a signal by an enzyme label.
Experiment [10] addresses human Thrombomodulin (human, UniProt P07204 19-515, limits assumed). In words: ELISA, antigen coated 1 µg/ml. The protocol: (§3) Binding of the anti-MSLN mAbs, tested at a concentration range of 0.02 to 1000 nM (3-fold dilutions) was detected using anti-human Fab-HRP (Sigma, A0293).
In experiment [11] the target is T3, human CEACAM-5-His-Fc (human, UniProt P06731 35-685).
T3 sequence (looked up): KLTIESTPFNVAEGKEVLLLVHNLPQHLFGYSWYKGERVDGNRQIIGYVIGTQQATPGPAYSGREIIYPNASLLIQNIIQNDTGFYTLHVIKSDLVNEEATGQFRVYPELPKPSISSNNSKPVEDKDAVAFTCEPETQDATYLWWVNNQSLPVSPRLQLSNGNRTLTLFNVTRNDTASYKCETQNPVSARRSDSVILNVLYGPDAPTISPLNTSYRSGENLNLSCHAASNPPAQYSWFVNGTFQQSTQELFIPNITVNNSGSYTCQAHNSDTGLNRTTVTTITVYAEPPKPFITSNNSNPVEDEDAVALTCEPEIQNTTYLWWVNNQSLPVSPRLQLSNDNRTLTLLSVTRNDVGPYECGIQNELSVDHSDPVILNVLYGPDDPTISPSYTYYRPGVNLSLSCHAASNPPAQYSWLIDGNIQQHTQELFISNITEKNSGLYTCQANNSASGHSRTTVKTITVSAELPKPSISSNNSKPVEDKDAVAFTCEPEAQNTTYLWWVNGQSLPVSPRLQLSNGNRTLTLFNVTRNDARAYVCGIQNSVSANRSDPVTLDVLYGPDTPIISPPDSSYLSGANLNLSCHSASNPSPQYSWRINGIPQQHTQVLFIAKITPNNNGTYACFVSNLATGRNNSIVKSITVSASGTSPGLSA
The experiment is described as follows: ELISA, antigen coated 1 µg/ml. The protocol: as §3

Experiment [12] has as its target T4, human EpCAM-hFc (human, UniProt P16422 24-265, limits assumed).
T4 sequence (looked up): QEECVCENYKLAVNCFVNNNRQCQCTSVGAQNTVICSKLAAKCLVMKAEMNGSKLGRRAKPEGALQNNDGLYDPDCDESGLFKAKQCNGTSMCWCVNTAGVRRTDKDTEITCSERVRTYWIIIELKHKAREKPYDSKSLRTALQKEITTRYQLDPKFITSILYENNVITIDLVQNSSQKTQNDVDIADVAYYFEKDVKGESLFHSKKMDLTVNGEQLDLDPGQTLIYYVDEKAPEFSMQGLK
In words: ELISA, antigen coated 1 µg/ml. The protocol:
as §3

The target of experiment [13] is T5, human E-Cadherin (human, UniProt P12830 155-707).
T5 sequence (looked up): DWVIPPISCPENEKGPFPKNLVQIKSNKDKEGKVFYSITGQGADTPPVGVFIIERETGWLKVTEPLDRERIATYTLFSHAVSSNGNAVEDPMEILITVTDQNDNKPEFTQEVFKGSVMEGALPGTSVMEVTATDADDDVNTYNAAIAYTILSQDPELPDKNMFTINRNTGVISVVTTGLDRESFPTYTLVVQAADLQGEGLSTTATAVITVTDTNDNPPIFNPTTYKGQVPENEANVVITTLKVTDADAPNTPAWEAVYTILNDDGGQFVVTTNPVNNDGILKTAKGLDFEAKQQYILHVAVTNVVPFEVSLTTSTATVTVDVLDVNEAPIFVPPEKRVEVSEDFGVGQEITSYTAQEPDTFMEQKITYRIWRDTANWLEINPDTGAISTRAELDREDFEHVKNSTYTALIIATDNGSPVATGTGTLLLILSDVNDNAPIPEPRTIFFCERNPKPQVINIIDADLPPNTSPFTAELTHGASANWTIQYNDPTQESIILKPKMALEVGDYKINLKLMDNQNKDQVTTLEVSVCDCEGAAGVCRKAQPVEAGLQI
In words: ELISA, antigen coated 1 µg/ml. As to the method:
as §3

In experiment [14] the target is T1, hMSLN-His-Avi. The experiment is described as follows: SPR, hMSLN-His-Avi immobilised at 100 RU.
Experiment [15] concerns the target T1, hMSLN-His-Avi. The experiment is described as follows: SPR, hMSLN-His-Avi immobilised at 50 RU.

Some results are limits rather than exact numbers.

T1 sequence (Q13421 other isoform, or with tags, fused parts or gaps): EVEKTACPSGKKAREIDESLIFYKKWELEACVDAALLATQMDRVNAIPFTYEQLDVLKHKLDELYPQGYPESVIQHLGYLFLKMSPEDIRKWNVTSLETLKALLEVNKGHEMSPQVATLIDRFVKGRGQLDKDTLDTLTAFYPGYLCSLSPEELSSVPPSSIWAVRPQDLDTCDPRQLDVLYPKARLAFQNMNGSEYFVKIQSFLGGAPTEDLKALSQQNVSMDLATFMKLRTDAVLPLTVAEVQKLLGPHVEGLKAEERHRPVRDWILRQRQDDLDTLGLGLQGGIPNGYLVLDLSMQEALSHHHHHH
Chain of human Thrombomodulin (P07204 19-515 limits assumed): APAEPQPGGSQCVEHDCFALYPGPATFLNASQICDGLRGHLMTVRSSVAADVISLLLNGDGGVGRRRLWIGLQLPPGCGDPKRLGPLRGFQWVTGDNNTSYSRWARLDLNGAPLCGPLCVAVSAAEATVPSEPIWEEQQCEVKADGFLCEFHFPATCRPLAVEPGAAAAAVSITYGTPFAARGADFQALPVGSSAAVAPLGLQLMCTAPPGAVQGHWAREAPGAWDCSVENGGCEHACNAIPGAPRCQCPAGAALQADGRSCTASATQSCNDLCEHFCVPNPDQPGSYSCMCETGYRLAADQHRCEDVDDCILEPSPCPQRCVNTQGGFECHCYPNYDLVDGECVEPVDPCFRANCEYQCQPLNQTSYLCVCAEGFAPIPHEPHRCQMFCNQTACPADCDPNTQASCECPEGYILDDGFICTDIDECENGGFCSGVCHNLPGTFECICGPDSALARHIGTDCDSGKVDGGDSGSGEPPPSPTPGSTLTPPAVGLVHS

B1: FS22-172-003-AA/FS28-256-272 (bispecific antibody, human IgG1, kappa, L234A L235A, V domains shown)
VH: EVQLLESGGGLVQPGGSLRLSCAASGFTFTHTYMSWVRQAPGKGLEWVSHISPTYSTTNYADSVKGRFTISRDNNKNTLYLQMNSLRAEDTAVYYCARYNAYHAALDYWGQGTLVTVSS
VL: EIVLTQSPGTLSLSPGERATLSCRASQSVSSSYLAWYQQKPGQAPRLLIYGASSRATGIPDRFSGSGSGTDFTLTISRLEPEDFAVYYCQQTVPYPYTFGQGTKVEIKR
notes: IgG1 mAb^2 with LALA
As a reminder, the Kd is a measure of binding affinity in units of concentration. A low value points to tighter binding. With B1, the Kd is 7.6 nM in experiment [1], 7.6 nM in experiment [2], 10.7 nM in experiment [5] and 10.7 nM in experiment [7]. In experiment [3], the “ratio of KD in solution/immobilised” value was found to be 0.7. Moreover, the “fold change of IL-2 EC50 with 20 nM sMSLN against none, NCI-H226 co-culture” value in [4] is greater than 4 fold. Further, in experiment [6], the “IL-2 release EC50, NCI-H226 co-culture, +2 nM sMSLN” value is 0.13 nM. For the same molecule, the “IL-2 release EC50, NCI-H226 co-culture, +20 nM sMSLN” value in experiment [6] is 0.684 nM. For the same molecule, the “IL-2 release EC50, NCI-H226 co-culture, no sMSLN” value in experiment [6] turned out to be 0.122 nM. For the same molecule, the “KD ratio in solution/immobilised human MSLN” value in experiment [8] stood at 0.7.

B2: FS28-256 (mAb in G1-AA format) (antibody, human IgG1, V domains shown)
VH: EVQLLESGGGLVQPGGSLRLSCAASGFTFTNTYMSWVRQAPGKGLEWVSNISPTYSTTNYADSVKGRFTISRDNSKNTLYLQMNSLRAEDTAVYYCARYNSYQGGLDYWGQGTLVTVSS
VL: EIVLTQSPGTLSLSPGERATLSCRASQSVSSSYLAWYQQKPGQAPRLLIYGASSRATGIPDRFSGSGSGTDFTLTISRLEPEDFAVYYCQQSYYYPITFGQGTKVEIK
The EC50 is the concentration at which the effect is half-maximal. Higher therefore signals lower potency in that assay. With B2, the EC50 in experiment [9] was roughly 0.5 nM. In [9], this molecule showed a maximum binding signal of 3. The binding result in experiment [10], in experiment [11], in [12] and in experiment [13] was “no binding (tested: 1000 nM)” throughout. The values for the Kd in experiment [14] and in experiment [15] were 23.2 nM and 26.2 nM, respectively.

B3: FS22-172-003-AA/FS28-256-273 (bispecific antibody, human IgG1, kappa, L234A L235A, V domains shown)
VH: EVQLLESGGGLVQPGGSLRLSCAASGFTFTHTYMSWVRQAPGKGLEWVSSISPTYSTTNYADSVKGRFTISRDNNKNTLYLQMNSLRAEDTAVYYCARYNAYHAALDYWGQGTLVTVSS
VL: EIVLTQSPGTLSLSPGERATLSCRASQSVSSSYLAWYQQKPGQAPRLLIYGASSRATGIPDRFSGSGSGTDFTLTISRLEPEDFAVYYCQQTVPYPYTFGQGTKVEIKR
notes: IgG1 mAb^2 with LALA
For B3, the Kd in experiment [1] turned out to be 7.4 nM; in experiment [2], 7.4 nM; in experiment [5], 6 nM; in experiment [7] it was 6 nM. Moreover, the “ratio of KD in solution/immobilised” value in [3] was 1.2. The “fold change of IL-2 EC50 with 20 nM sMSLN against none, NCI-H226 co-culture” value in experiment [4] is greater than 4 fold. In experiment [6], the “IL-2 release EC50, NCI-H226 co-culture, +2 nM sMSLN” value worked out at 0.0616 nM. Moreover, the “IL-2 release EC50, NCI-H226 co-culture, +20 nM sMSLN” value in experiment [6] stood at 0.366 nM. The “IL-2 release EC50, NCI-H226 co-culture, no sMSLN” value in experiment [6] amounted to 0.0791 nM. Also, in experiment [8], the “KD ratio in solution/immobilised human MSLN” value came out at 1.2.

B4: FS28-185 (mAb in G1-AA format) (antibody, human IgG1, V domains shown)
VH: EVQLLESGGGLVQPGGSLRLSCAASGFTFTTSAMSWVRQAPGKGLEWVSRINPYEGETNYADSVKGRFTISRDNSKNTLYLQMNSLRAEDTAVYYCARGWSIATYYKSAMDYWGQGTLVTVSS
VL: EIVLTQSPGTLSLSPGERATLSCRASQSVSSSYLAWYQQKPGQAPRLLIYGASSRATGIPDRFSGSGSGTDFTLTISRLEPEDFAVYYCQQSSYSAPVTFGQGTKVEIKR
B4: the EC50 in [9] is roughly 0.5 nM. The same molecule returned a maximum binding signal in experiment [9] of 3. Besides, the binding result in experiment [10], in experiment [11], in experiment [12] and in [13] was “no binding (tested: 1000 nM)” in each case. The Kd in [14] is 29.6 nM; in experiment [15] it was 37 nM.
